Laboratory results from the RNAGym collection of RNA variant scans (doi:10.1021/acssynbio.7b00057).

B1: Pistol ribozyme (parent)
chain: GGGUCGUUGUUCCAUAAUCGCGUGGAUAUGGCACGCAAGUUUCUACCGGGCACCGUAAAUGUCCGACUGGAGCCGUUCGGGCGGCUAUAAACAGACCUCAGGCCCGAAGCGUGGCGGCACCUGCCGCCGGUGGUAAAAAAGAUCGGAAGAGCACACGUCU

Variants of: B1
Assay: aptazyme ON/OFF ratio, guanine; higher = stronger switching; co-transcriptional cleavage with and without guanine

Variant | aptazyme ON/OFF ratio
U8A G9A U11G C13G | 1.09
U8A G9A U10G U11C C12A C13U | 1.16
U8A G9A U10G U11C C12A C13A | 1.12
U8A G9A U10G U11C C12A C13G | 1.08
U8A G9C U10G U11A C12G C13U | 1.15
U8A G9C U10G U11A C12G C13A | 1.26
U8A G9C U10G U11A C12G C13G | 1.52
U8A G9A U10G U11A C12G | 1.24
U8A G9A U10G U11A C12U | 1.06
U8A G9A U10G U11A C12A | 1.17
U8A G9C U10A U11G C12U C13G | 1.18
U8A G9C U10A U11G C12U C13A | 1.17
U8A G9C U10A U11G C12U C13U | 1.14
U8A G9C U10A U11A C12A C13A | 1.21
U8A G9C U10A U11A C12A C13G | 1.19
U8A G9C U10A U11A C12A C13U | 1.37
U8A G9C U10A U11A C13A | 1.16
U8A G9C U10A U11A C13G | 1.08
U8A G9C U10A U11A C13U | 1.22
U8A G9A U11G C12A C13U | 1.09
U8A G9A U11G C12A C13G | 1.21

Variant | aptazyme ON/OFF ratio
U8A G9A U11G C12A C13A | 1.14
U8A G9A U10G U11A C13G | 1.02
U8A G9A U10G U11A C13U | 1.06
U8A G9A U10G U11A C13A | 1.03
U8A G9C U10A U11G C12G | 1.18
U8A G9C U10A U11G C12U | 1.25
U8A G9C U10A U11G C12A | 1.06
U8A G9C U10C U11G C13A | 1.08
U8A G9C U10C U11G C13G | 1.05
U8A G9C U10C U11G C13U | 1.08
U8A G9A U10C U11C C12U C13A | 1.04
U8A G9A U10C U11C C12U C13U | 1.05
U8A G9A U10C U11C C12U C13G | 1.05
U8A G9A U11A C13G | 1.03
U8A G9A U11A C13U | 1.16
U8A G9A U11A C13A | 1.26
U8A G9A U10C U11G C12G C13G | 1.24
U8A G9A U10C U11G C12G C13A | 1.28
U8A G9A U10C U11G C12G C13U | 1.17
U8A G9C U10G U11C C12U C13G | 1.18
U8A G9C U10G U11C C12U C13A | 1.13

Variant | aptazyme ON/OFF ratio
U8A G9C U10G U11C C12U C13U | 1.16
U8A G9C U10G U11C C12A | 1.18
U8A G9C U10G U11C C12G | 1.14
U8A G9C U10G U11C C12U | 1.05
U8A G9C U10A U11C C12U | 1.06
U8A G9C U10A U11C C12G | 1.1
U8A G9C U10A U11C C12A | 1.21
U8A G9C U10A U11A | 1.37
U8A G9C U10A U11C | 1.01
U8A G9C U10A U11G | 1.3
U8A G9C U10C U11C C12U | 1
U8A G9C U10C U11C C12G | 1.01
U8A G9C U10C U11C C12A | 1.04
U8A G9C U10G U11C | 1.05
U8A G9C U10G U11G | 1.07
U8A G9C U10G U11A | 1.03
U8A G9A U10C U11C C12U | 1.07
U8A G9A U10C U11C C12G | 1.05
U8A G9C U10G U11A C13G | 1.06
U8A G9C U10G U11A C13U | 1.02
U8A G9C U10G U11A C13A | 1.03

Variant | aptazyme ON/OFF ratio
U8A G9C U10C U11C C13G | 1.06
U8A G9C U10C U11C C13U | 0.998
U8A G9C U10C U11C C13A | 1.02
U8A G9A U10C U11G | 1.33
U8A G9A U10G U11G C12A | 1.09
U8A G9A U10G U11G C12G | 1.26
U8A G9A U10G U11G C12U | 1.2
U8A G9C U10C U11A C12U C13U | 1.13
U8A G9C U10C U11A C12U C13A | 1.07
U8A G9C U10C U11A C12U C13G | 1.06
U8A G9C C12A C13G | 1.17
U8A G9C C12A C13U | 1.25
U8A G9C C12A C13A | 1.24
U8A G9A U10G U11C | 1.05
U8A G9A U10G U11G | 1.07
U8A G9A U10G U11A | 1.02
U8A G9A U11G C12G | 1.08
U8A G9A U11G C12A | 1.08
U8A G9A U11G C12U | 1.35
U8A G9C U10G U11C C12A C13A | 1.17
U8A G9C U10G U11C C12A C13G | 1.12
